Assay results published in patent US20250304717A1, “CAMPTOTHECIN DERIVATIVE AND LIGAND-DRUG CONJUGATE” (HAINAN SIMCERE ZAIMING PHARMACEUTICAL CO., LTD., priority 2022, published 2025).

Biological target: human ROR1 on stably transfected cell strain MCF7-hROR1 clone 2G2 (human, UniProt Q01973 30-406)
Assay: flow cytometry (FACS) on MCF7-hROR1 clone 2G2 cells, 5-fold dilutions from 100 nM, Alexa Fluor 647 anti-human IgG secondary antibody, four-parameter fit
Description: Stably transfected cell strain MCF7-hROR1 clone 2G2 constructed in the steps described above was expanded to a logarithmic growth phase in a T-75 cell culture flask, and the medium supernatant was discarded after centrifugation. The cell pellet was washed twice with PBS. […] After the mixture was washed twice with PBS, a secondary antibody was added: Alexa Fluor® 647 AffiniPure Goat Anti-Human IgG (H+L) (purchased from Jackson Immuno, Cat. No: 109-605-088), and the mixture was incubated at 4° C. for 1 h. After the mixture was washed twice with PBS, the cells were resuspended, and detected and analyzed by FACS (FACS Canto™, purchased from BD Biosciences). Data were analyzed by four-parameter curve fitting using Graphpad Prism software to give EC₅₀ values.

Binder | EC50 [nM]
ADC-L1-19-9 (antibody, human IgG1, kappa, V domains shown, drug-linker L1-19 on cysteine thiols after TCEP reduction; positions not given; DAR 7.3 for the whole conjugate, Antibody-drug conjugate) VH: EVQLLESGGGLVQPGGSLRLSCAASGFTFSNYAMSWVRQAPGKGLEWVSSISHNSGSTYYADSVKGRFTISRDNSKNTLYLQMNSLRAEDTAVYYCAKFISARKSLGRSYSNGMDVWGQGTLVTVSS VL: QSVLTQPPSASGTPGQRVTISCTGSSSNIGSNDVTWYQQLPGTAPKLLIYADSKRPSGVPDRFSGSKSGTSASLAISGLRSEDEADYYCGTWDYSLSGYVFGGGTKLTVLR | 0.42
ADC-L1-19-P1-9 (antibody, human IgG1, kappa, V domains shown, drug-linker L1-19-P1 on cysteine thiols after TCEP reduction; positions not given; DAR 7.7 for the whole conjugate, Antibody-drug conjugate) VH: EVQLLESGGGLVQPGGSLRLSCAASGFTFSNYAMSWVRQAPGKGLEWVSSISHNSGSTYYADSVKGRFTISRDNSKNTLYLQMNSLRAEDTAVYYCAKFISARKSLGRSYSNGMDVWGQGTLVTVSS VL: QSVLTQPPSASGTPGQRVTISCTGSSSNIGSNDVTWYQQLPGTAPKLLIYADSKRPSGVPDRFSGSKSGTSASLAISGLRSEDEADYYCGTWDYSLSGYVFGGGTKLTVLR | 0.5
ADC-L1-0-9 (antibody, human IgG1, kappa, V domains shown, drug-linker L1-0 on cysteine thiols after TCEP reduction; positions not given; DAR 5.5 for the whole conjugate) VH: EVQLLESGGGLVQPGGSLRLSCAASGFTFSNYAMSWVRQAPGKGLEWVSSISHNSGSTYYADSVKGRFTISRDNSKNTLYLQMNSLRAEDTAVYYCAKFISARKSLGRSYSNGMDVWGQGTLVTVSS VL: QSVLTQPPSASGTPGQRVTISCTGSSSNIGSNDVTWYQQLPGTAPKLLIYADSKRPSGVPDRFSGSKSGTSASLAISGLRSEDEADYYCGTWDYSLSGYVFGGGTKLTVLR | 0.43
ROR1-Ab-2 (antibody, human IgG1, kappa, V domains shown, also called anti-human ROR1 monoclonal antibody ROR1-Ab-2) VH: EVQLLESGGGLVQPGGSLRLSCAASGFTFSNYAMSWVRQAPGKGLEWVSSISHNSGSTYYADSVKGRFTISRDNSKNTLYLQMNSLRAEDTAVYYCAKFISARKSLGRSYSNGMDVWGQGTLVTVSS VL: QSVLTQPPSASGTPGQRVTISCTGSSSNIGSNDVTWYQQLPGTAPKLLIYADSKRPSGVPDRFSGSKSGTSASLAISGLRSEDEADYYCGTWDYSLSGYVFGGGTKLTVLR | 0.98
ADC-L1-19-10 (antibody, human IgG1, kappa, V domains shown, drug-linker L1-19 on cysteine thiols after TCEP reduction; positions not given; DAR 7.2 for the whole conjugate, Antibody-drug conjugate) VH: QVQLRESGPGLVKPSETLSLTCTVSGFDISSYYMSWVRQPPGKGLEWIGAIGISGNAYYASWAKSRVTISRDTSKNQFSLKLSSVTAADTAVYYCARDHPTYGMDLWGPGTLVTVSS VL: SYELTQPPSVSVAPGKTARITCEGNNIGSKAVHWYQQKPGQAPVLVIYDDDERPSGIPERFSGSNSGNTATLTISRVEAGDEADYYCQVWDSSAYVFGGGTKLTVLR | 0.98
ADC-L1-19-P1-10 (antibody, human IgG1, kappa, V domains shown, drug-linker L1-19-P1 on cysteine thiols after TCEP reduction; positions not given; DAR 8.0 for the whole conjugate, Antibody-drug conjugate) VH: QVQLRESGPGLVKPSETLSLTCTVSGFDISSYYMSWVRQPPGKGLEWIGAIGISGNAYYASWAKSRVTISRDTSKNQFSLKLSSVTAADTAVYYCARDHPTYGMDLWGPGTLVTVSS VL: SYELTQPPSVSVAPGKTARITCEGNNIGSKAVHWYQQKPGQAPVLVIYDDDERPSGIPERFSGSNSGNTATLTISRVEAGDEADYYCQVWDSSAYVFGGGTKLTVLR | 0.57
ADC-L1-0-8 (antibody, human IgG1, kappa, V domains shown, drug-linker L1-0 on cysteine thiols after TCEP reduction; positions not given; DAR 6.6 for the whole conjugate) VH: QVQLQESGPGLVKPSQTLSLTCTVSGYAFTAYNIHWVRQAPGQGLEWMGSFDPYDGGSSYNQKFKDRLTISKDTSKNQVVLTMTNMDPVDTATYYCARGWYYFDYWGHGTLVTVSS VL: DIVMTQTPLSLPVTPGEPASISCRASKSISKYLAWYQQKPGQAPRLLIYSGSTLQSGIPPRFSGSGYGTDFTLTINNIESEDAAYYFCQQHDESPYTFGEGTKVEIKR | 0.75
ROR1-Ab-1 (antibody, human IgG1, kappa, V domains shown, also called anti-human ROR1 monoclonal antibody ROR1-Ab-1) VH: QVQLQESGPGLVKPSQTLSLTCTVSGYAFTAYNIHWVRQAPGQGLEWMGSFDPYDGGSSYNQKFKDRLTISKDTSKNQVVLTMTNMDPVDTATYYCARGWYYFDYWGHGTLVTVSS VL: DIVMTQTPLSLPVTPGEPASISCRASKSISKYLAWYQQKPGQAPRLLIYSGSTLQSGIPPRFSGSGYGTDFTLTINNIESEDAAYYFCQQHDESPYTFGEGTKVEIKR | 0.99
